System: Escherichia coli TOP10
Experiment: shrunken log2 fold change of peptide-encoding DNA abundance (4.5 h post-induction vs induction); higher = less antimicrobial activity (less host growth inhibition)
Conditions: time post-induction: 4.5 h; library: site-saturation at positions 5, 18, 19, 20
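Also: peptides expressed intracellularly from a pBAD plasmid library in pooled LB shake-flask culture, induced with 0.3% L-arabinose, DNA abundance read by NGS, three biological replicates, DESeq2 with apeglm shrinkage.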

| Sequence | shrunken log2 fold change |
| --- | --- |
| RRIRRRPPRLPRPRPRPPFHPRP | 0.321 |
| RRIRRRPPRLPRPRPRPRMQPRP | 0.372 |
| RRIRTRPPRLPRPRPRPVHLPRP | -0.123 |
| RRIRDRPPRLPRPRPRPIDIPRP | -0.0169 |
| RRIRQRPPRLPRPRPRPDQVPRP | -0.00133 |
| RRIRVRPPRLPRPRPRPMAAPRP | 0.287 |
| RRIRTRPPRLPRPRPRPTWQPRP | 0.149 |
| RRIRGRPPRLPRPRPRPSFRPRP | 0.0601 |
| RRIRVRPPRLPRPRPRPTMRPRP | 0.799 |
| RRIRKRPPRLPRPRPRPIYYPRP | -0.37 |
| RRIRPRPPRLPRPRPRPASAPRP | 0.441 |
| RRIRVRPPRLPRPRPRPLGPPRP | 0.342 |
| RRIRQRPPRLPRPRPRPMWGPRP | -0.263 |
| RRIRKRPPRLPRPRPRPLAYPRP | 0.259 |
| RRIRRRPPRLPRPRPRPEETPRP | 0.244 |
| RRIRKRPPRLPRPRPRPPVMPRP | 0.337 |
| RRIRGRPPRLPRPRPRPLICPRP | 0.147 |
| RRIRVRPPRLPRPRPRPVIPPRP | -0.0964 |
| RRIRERPPRLPRPRPRPHCRPRP | -0.168 |
| RRIRFRPPRLPRPRPRPFPKPRP | 0.00183 |
| RRIRNRPPRLPRPRPRPGRHPRP | 0.00674 |
| RRIRWRPPRLPRPRPRPNYWPRP | 1.21 |
| RRIRKRPPRLPRPRPRPDKWPRP | 0.429 |
| RRIRRRPPRLPRPRPRPSIAPRP | 0.238 |
| RRIRTRPPRLPRPRPRPLSKPRP | -0.22 |

| Sequence | shrunken log2 fold change |
| --- | --- |
| RRIRARPPRLPRPRPRPMPYPRP | -0.105 |
| RRIRERPPRLPRPRPRPGFNPRP | 0.0108 |
| RRIRCRPPRLPRPRPRPGPIPRP | 0.367 |
| RRIRERPPRLPRPRPRPFHFPRP | -0.787 |
| RRIRPRPPRLPRPRPRPRIKPRP | -0.138 |
| RRIRSRPPRLPRPRPRPCGFPRP | -0.0141 |
| RRIRSRPPRLPRPRPRPRGSPRP | 0.378 |
| RRIRWRPPRLPRPRPRPQGHPRP | 0.0837 |
| RRIRMRPPRLPRPRPRPQIMPRP | -0.0466 |
| RRIRHRPPRLPRPRPRPYCCPRP | -0.305 |
| RRIRSRPPRLPRPRPRPFQDPRP | -0.01 |
| RRIRQRPPRLPRPRPRPRNHPRP | -0.137 |
| RRIRERPPRLPRPRPRPFFRPRP | -0.112 |
| RRIRHRPPRLPRPRPRPDNLPRP | 0.0139 |
| RRIRWRPPRLPRPRPRPILRPRP | -0.0505 |
| RRIRARPPRLPRPRPRPLKPPRP | 0.464 |
| RRIRWRPPRLPRPRPRPKRLPRP | 2.54 |
| RRIRKRPPRLPRPRPRPQPVPRP | 0.095 |
| RRIRHRPPRLPRPRPRPQVYPRP | -0.21 |
| RRIRYRPPRLPRPRPRPHTTPRP | -0.0318 |
| RRIRNRPPRLPRPRPRPVENPRP | -0.0754 |
| RRIRGRPPRLPRPRPRPIWPPRP | 0.23 |
| RRIRNRPPRLPRPRPRPVQEPRP | -0.0428 |
| RRIRPRPPRLPRPRPRPQKTPRP | -0.0227 |
| RRIRVRPPRLPRPRPRPSMGPRP | -0.399 |

| Sequence | shrunken log2 fold change |
| --- | --- |
| RRIRFRPPRLPRPRPRPTNFPRP | -0.0824 |
| RRIRQRPPRLPRPRPRPNAYPRP | -0.279 |
| RRIRNRPPRLPRPRPRPRYEPRP | -0.27 |
| RRIRHRPPRLPRPRPRPYSEPRP | -0.29 |
| RRIRHRPPRLPRPRPRPRWTPRP | 0.0902 |
| RRIRDRPPRLPRPRPRPDDMPRP | 0.155 |
| RRIRKRPPRLPRPRPRPSDTPRP | 0.322 |
| RRIRKRPPRLPRPRPRPLVSPRP | 0.0109 |
| RRIRTRPPRLPRPRPRPQVRPRP | 0.0794 |
| RRIRHRPPRLPRPRPRPFNPPRP | -0.17 |
| RRIRVRPPRLPRPRPRPNGYPRP | -0.199 |
| RRIRCRPPRLPRPRPRPSAAPRP | 0.386 |
| RRIRQRPPRLPRPRPRPLWGPRP | -0.0254 |
| RRIRMRPPRLPRPRPRPKLSPRP | 0.982 |
| RRIRGRPPRLPRPRPRPQFMPRP | 0.0535 |
| RRIRGRPPRLPRPRPRPDSYPRP | 0.0941 |
| RRIRIRPPRLPRPRPRPNIGPRP | -0.358 |
| RRIRPRPPRLPRPRPRPTRCPRP | 0.279 |
| RRIRWRPPRLPRPRPRPDARPRP | -0.018 |
| RRIRIRPPRLPRPRPRPHEYPRP | 0.0332 |
| RRIRCRPPRLPRPRPRPSVQPRP | -0.579 |
| RRIRERPPRLPRPRPRPQPRPRP | 0.328 |
| RRIRFRPPRLPRPRPRPGQDPRP | -0.0452 |
| RRIRIRPPRLPRPRPRPQDLPRP | -0.527 |
| RRIRTRPPRLPRPRPRPRLTPRP | -0.00933 |

| Sequence | shrunken log2 fold change |
| --- | --- |
| RRIRNRPPRLPRPRPRPVPQPRP | 0.24 |
| RRIRCRPPRLPRPRPRPGIHPRP | -0.405 |
| RRIRARPPRLPRPRPRPTSFPRP | 0.237 |
| RRIRVRPPRLPRPRPRPTDSPRP | -0.115 |
| RRIRWRPPRLPRPRPRPGSKPRP | 0.0611 |
| RRIRTRPPRLPRPRPRPHNVPRP | -0.141 |
| RRIRRRPPRLPRPRPRPLMEPRP | -0.0263 |
| RRIRFRPPRLPRPRPRPLNIPRP | -0.594 |
| RRIRNRPPRLPRPRPRPWISPRP | -0.0184 |
| RRIRIRPPRLPRPRPRPPFYPRP | -0.438 |
| RRIRRRPPRLPRPRPRPGTVPRP | 0.0962 |
| RRIRCRPPRLPRPRPRPHIHPRP | -0.759 |
| RRIRMRPPRLPRPRPRPARMPRP | 0.888 |
| RRIRRRPPRLPRPRPRPCAPPRP | 0.275 |
| RRIRERPPRLPRPRPRPTACPRP | -0.134 |
| RRIRRRPPRLPRPRPRPQCFPRP | 0.212 |
| RRIRQRPPRLPRPRPRPYQYPRP | -0.016 |
| RRIRCRPPRLPRPRPRPQMDPRP | -0.248 |
| RRIRQRPPRLPRPRPRPISGPRP | -0.018 |
| RRIRCRPPRLPRPRPRPCRPPRP | -0.0339 |
| RRIRYRPPRLPRPRPRPIYCPRP | -0.15 |
| RRIRLRPPRLPRPRPRPATHPRP | 0.253 |
| RRIRQRPPRLPRPRPRPHACPRP | -0.0973 |
| RRIRMRPPRLPRPRPRPHAWPRP | 0.365 |
| RRIRIRPPRLPRPRPRPVRYPRP | 0.326 |

| Sequence | shrunken log2 fold change |
| --- | --- |
| RRIRHRPPRLPRPRPRPQVFPRP | -0.00865 |
| RRIRLRPPRLPRPRPRPSSMPRP | -0.179 |
| RRIRARPPRLPRPRPRPVKIPRP | 0.0527 |
| RRIRMRPPRLPRPRPRPESRPRP | 2.68 |
| RRIRIRPPRLPRPRPRPEVVPRP | 0.00224 |
| RRIRCRPPRLPRPRPRPEWPPRP | 0.331 |
| RRIRSRPPRLPRPRPRPIMSPRP | -0.173 |
| RRIRDRPPRLPRPRPRPEIGPRP | 0.765 |
| RRIRFRPPRLPRPRPRPVHAPRP | 0.184 |
| RRIRWRPPRLPRPRPRPMTIPRP | 0.025 |
| RRIRDRPPRLPRPRPRPYHYPRP | -0.688 |
| RRIRIRPPRLPRPRPRPRYDPRP | -0.285 |
| RRIRARPPRLPRPRPRPAWEPRP | 0.925 |
| RRIRKRPPRLPRPRPRPDKSPRP | 0.0207 |
| RRIRERPPRLPRPRPRPYHNPRP | -1.33 |
| RRIRSRPPRLPRPRPRPLQNPRP | -0.0368 |
| RRIRDRPPRLPRPRPRPFGAPRP | 0.191 |
| RRIRERPPRLPRPRPRPIWQPRP | 0.062 |
| RRIRVRPPRLPRPRPRPESYPRP | 0.45 |
| RRIRKRPPRLPRPRPRPEFTPRP | 0.738 |
| RRIRQRPPRLPRPRPRPAENPRP | 0.0325 |
| RRIRLRPPRLPRPRPRPWPLPRP | -0.039 |
| RRIRARPPRLPRPRPRPAINPRP | -0.00878 |
| RRIRQRPPRLPRPRPRPYFAPRP | -0.292 |
| RRIRDRPPRLPRPRPRPEDFPRP | 0.427 |

Reference: the supplement of paper PMC9112550, “Optimization of the antimicrobial peptide Bac7 by deep mutational scanning” (BMC Biology, 2022)
